In patent publication US20030088057:

Columns and labels:
histone 2B = histone 2B (UniProt P62808)
histone 4 = histone 4 (UniProt P62803)
myelin basic protein = myelin basic protein (UniProt P02687)
rat prolactin = rat prolactin (UniProt P01237)
rat prolactin, sequence (P01237 30-226): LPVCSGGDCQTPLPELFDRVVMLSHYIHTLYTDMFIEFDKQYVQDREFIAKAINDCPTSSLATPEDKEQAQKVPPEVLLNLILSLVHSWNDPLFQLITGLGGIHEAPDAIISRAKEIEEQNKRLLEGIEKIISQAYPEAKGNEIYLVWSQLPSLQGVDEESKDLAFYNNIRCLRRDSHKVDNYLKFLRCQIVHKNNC

myelin basic protein, sequence (P02687 whole entry): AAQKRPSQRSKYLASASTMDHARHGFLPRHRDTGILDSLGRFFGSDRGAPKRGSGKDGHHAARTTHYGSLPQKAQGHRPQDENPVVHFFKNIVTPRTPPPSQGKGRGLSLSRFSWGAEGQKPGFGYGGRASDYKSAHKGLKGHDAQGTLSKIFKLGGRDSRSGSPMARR

## γ-PAK activated by limited digestion with trypsin
AAAASKR
  32P incorporated, proteolytically activated (pmol min^-1 µg^-1): 0
  rel rate (%), proteolytically activated (KKRKSAA = 100): 0%
AAKKSAA
  32P incorporated, proteolytically activated (pmol min^-1 µg^-1): 0
  rel rate (%), proteolytically activated (KKRKSAA = 100): 0%
AAKRSAA
  32P incorporated, proteolytically activated (pmol min^-1 µg^-1): 0
  rel rate (%), proteolytically activated (KKRKSAA = 100): 0%
AARASAA
  32P incorporated, proteolytically activated (pmol min^-1 µg^-1): 169
  rate of phosphorylation relative to AKRASAA: significantly slower rate (40 and 56%) as compared to AKRASAA (SEQ ID NO:6) and KKRKSAA (SEQ ID NO:8), respectively
  rel rate (%), proteolytically activated (KKRKSAA = 100): 56%
AKAASAA
  32P incorporated, proteolytically activated (pmol min^-1 µg^-1): 5
  rel rate (%), proteolytically activated (KKRKSAA = 100): 2%
AKRASAA
  32P incorporated, proteolytically activated (pmol min^-1 µg^-1): 426
  rel rate (%), proteolytically activated (KKRKSAA = 100): 141%
AKRASEA
  32P incorporated, proteolytically activated (pmol min^-1 µg^-1): 326
  rate of phosphorylation relative to AKRASAA: a glutamate residue in the +1 position decreased the rate to 71%
  rel rate (%), proteolytically activated (KKRKSAA = 100): 108%
AKRASGA
  32P incorporated, proteolytically activated (pmol min^-1 µg^-1): 324
  rel rate (%), proteolytically activated (KKRKSAA = 100): 107%
AKRASPA
  32P incorporated, proteolytically activated (pmol min^-1 µg^-1): 0
  rel rate (%), proteolytically activated (KKRKSAA = 100): 0%
AKRESAA
  32P incorporated, proteolytically activated (pmol min^-1 µg^-1): 750
  rate of phosphorylation relative to AKRASAA: increased the rate of phosphorylation relative to AKRASAA (SEQ ID NO:6) to 175 and 113%, respectively
  rel rate (%), proteolytically activated (KKRKSAA = 100): 247%
AKRGSAA
  32P incorporated, proteolytically activated (pmol min^-1 µg^-1): 381
  rel rate (%), proteolytically activated (KKRKSAA = 100): 126%
AKRKSAA
  32P incorporated, proteolytically activated (pmol min^-1 µg^-1): 548
  rel rate (%), proteolytically activated (KKRKSAA = 100): 181%
AKRPSAA
  32P incorporated, proteolytically activated (pmol min^-1 µg^-1): 16
  rel rate (%), proteolytically activated (KKRKSAA = 100): 6%
ARKASAA
  32P incorporated, proteolytically activated (pmol min^-1 µg^-1): 16
  rel rate (%), proteolytically activated (KKRKSAA = 100): 6%
ARRASAA
  32P incorporated, proteolytically activated (pmol min^-1 µg^-1): 391
  rel rate (%), proteolytically activated (KKRKSAA = 100): 129%
EKRASAA
  32P incorporated, proteolytically activated (pmol min^-1 µg^-1): 484
  rate of phosphorylation relative to AKRASAA: increased the rate of phosphorylation relative to AKRASAA (SEQ ID NO:6) to 175 and 113%, respectively
  rel rate (%), proteolytically activated (KKRKSAA = 100): 160%
KKAASAA
  32P incorporated, proteolytically activated (pmol min^-1 µg^-1): 0
  rel rate (%), proteolytically activated (KKRKSAA = 100): 0%
KKRASAA
  32P incorporated, proteolytically activated (pmol min^-1 µg^-1): 586
  rel rate (%), proteolytically activated (KKRKSAA = 100): 193%
KKRKSAA
  32P incorporated, proteolytically activated (pmol min^-1 µg^-1): 302
  rel rate (%), proteolytically activated (KKRKSAA = 100): 100%
PKRASAA
  32P incorporated, proteolytically activated (pmol min^-1 µg^-1): 636
  rel rate (%), proteolytically activated (KKRKSAA = 100): 209%
RKKKSAA
  32P incorporated, proteolytically activated (pmol min^-1 µg^-1): 0
  rel rate (%), proteolytically activated (KKRKSAA = 100): 0%

## active γ-PAK (mode of activation not stated for this experiment)
AAAASKR
  32P incorporated: 0 pmol/unit
  32P incorporated, % (AKRASAA = 100): 0%
AARASAA
  Km: 1880 µM
  Vmax: 2.27 pmol/min
  Vmax/Km (pmol min^-1 mM^-1): 1.2
AKAASAA
  Km: > 5000 µM
AKRASAA
  32P incorporated: 26.8 pmol/unit
  32P incorporated, % (AKRASAA = 100): 100%
  Km: 460 µM
  Vmax/Km (pmol min^-1 mM^-1): 2.2
AKRASEA
  32P incorporated: 18.3 pmol/unit
  32P incorporated, % (AKRASAA = 100): 68%
  Km: 1420 µM
  Km relative to AKRASAA: Glutamate in the -1 or +1 position increased the Km by ˜3-fold
  Vmax: 2.22 pmol/min
  Vmax relative to AKRASAA: >2-fold increase in the Vmax when glutamate was in the -4 or +1 position
  Vmax/Km (pmol min^-1 mM^-1): 1.6
  Vmax/Km relative to AKRASAA: 0.7-fold when glutamate was in the +1 position of AKRASEA
AKRASGA
  Km: 2090 µM
  Km relative to AKRASAA: increased the Km by 4-fold and the Vmax by 3-fold
  Vmax: 3.49 pmol/min
  Vmax relative to AKRASAA: increased the Km by 4-fold and the Vmax by 3-fold
  Vmax/Km (pmol min^-1 mM^-1): 1.7
AKRASPA
  Km: > 5000 µM
AKRESAA
  32P incorporated: 47.2 pmol/unit
  32P incorporated, % (AKRASAA = 100): 176%
  Km: 1350 µM
  Km relative to AKRASAA: Glutamate in the -1 or +1 position increased the Km by ˜3-fold
  Vmax: 6.62 pmol/min
  Vmax relative to AKRASAA: 6-fold higher than with AKRASAA
  Vmax/Km (pmol min^-1 mM^-1): 4.9
  Vmax/Km relative to AKRASAA: an increase in the overall rate (Vmax/Km) of ˜2.2-fold
AKRGSAA
  Km: 3520 µM
  Km relative to AKRASAA: increased the Km by 7-fold over that of the peptide containing alanine at that position
  Vmax: 6.44 pmol/min
  Vmax relative to AKRASAA: the Vmax was increased by 6-fold
  Vmax/Km (pmol min^-1 mM^-1): 1.8
AKRKSAA
  Km: 480 µM
  Vmax: 2.34 pmol/min
  Vmax/Km (pmol min^-1 mM^-1): 4.8
  Vmax/Km relative to AKRASAA: ˜2 fold higher than that of AKRASAA
AKRPSAA
  32P incorporated: 1.2 pmol/unit
  32P incorporated, % (AKRASAA = 100): 5%
  Km: > 5000 µM
ARAASVA
  rate of phosphorylation relative to ARRASVA: phosphorylated at a slower rate (40%) compared to ARRASVA (SEQ ID NO:17) (100%)
ARKASAA
  32P incorporated: 0.9 pmol/unit
  32P incorporated, % (AKRASAA = 100): 3%
  Km: > 5000 µM
ARRASAA
  32P incorporated: 25 pmol/unit
  32P incorporated, % (AKRASAA = 100): 93%
  Km: 650 µM
  Vmax: 2.11 pmol/min
  Vmax/Km (pmol min^-1 mM^-1): 3.2
ARRASVA
  rate of phosphorylation (reference): ARRASVA (SEQ ID NO:17) (100%)
EKRASAA
  32P incorporated: 30.2 pmol/unit
  32P incorporated, % (AKRASAA = 100): 113%
  Km: 890 µM
  Km relative to AKRASAA: the Km was increased by 2-fold when glutamate was in the -4 position
  Vmax: 2.48 pmol/min
  Vmax relative to AKRASAA: >2-fold increase in the Vmax when glutamate was in the -4 or +1 position
  Vmax/Km (pmol min^-1 mM^-1): 2.8
  Vmax/Km relative to AKRASAA: 1.3-fold with glutamate in the -4 position
KKRASAA
  Km: 370 µM
  Vmax: 1.59 pmol/min
  Vmax/Km (pmol min^-1 mM^-1): 4.3
  Vmax/Km relative to AKRASAA: ˜2 fold higher than that of AKRASAA
KKRKSAA
  32P incorporated: 19.2 pmol/unit
  32P incorporated, % (AKRASAA = 100): 72%
  Km: 610 µM
  Vmax: 1.84 pmol/min
  Vmax/Km (pmol min^-1 mM^-1): 3
PKRASAA
  32P incorporated: 40.5 pmol/unit
  32P incorporated, % (AKRASAA = 100): 151%
  Km: 240 µM
  Km relative to AKRASAA: decreased the Km by ≈2-fold as compared to AKRASAA
  Vmax: 1.1 pmol/min
  Vmax/Km (pmol min^-1 mM^-1): 4.6
  phosphorylation rate (Vmax/Km) relative to AKRASAA: an overall effect of a 2-fold increase in the phosphorylation rate
RKKKSAA
  32P incorporated: 0.1 pmol/unit
  32P incorporated, % (AKRASAA = 100): 0%
casein
  substrate or not: Proteins that are not substrates for γ-PAK, such as casein, histone 1, cdc42, and rac1 (data not shown)
cdc42
  substrate or not: Proteins that are not substrates for γ-PAK, such as casein, histone 1, cdc42, and rac1 (data not shown)
Histone 1
  32P incorporated: 0 pmol
  rel rate (%) (histone 2B = 100): 0%
Histone 2B
  32P incorporated: 11 pmol
  rel rate (%) (histone 2B = 100): 100%
Histone 4
  32P incorporated: 8.3 pmol
  rel rate (%) (histone 2B = 100): 74%
Myelin basic protein
  32P incorporated: 4.2 pmol
  rel rate (%) (histone 2B = 100): 37%
protamine
  32P incorporated: 0 pmol
  rel rate (%) (histone 2B = 100): 0%
rac1
  substrate or not: Proteins that are not substrates for γ-PAK, such as casein, histone 1, cdc42, and rac1 (data not shown)
Rat prolactin
  32P incorporated: 1.8 pmol
  rel rate (%) (histone 2B = 100): 17%
